Experiment [1] concerns the target SF2-HFNef (HIV-1 (SF2)) (UniProt P03407). The experiment in a line: co-IP; membrane-associated protein fraction of co-transfected 293T cells, solubilised in Buffer B plus 0.5% IGEPAL CA-630; anti-HA monoclonal antibody precipitates the HF-tagged Nef, untagged Nef detected by Western blot; fractional dimerization (FD) estimated from band densities assuming strict dimers and a binomial distribution.

Experiment [2] has as its target NA7-HFNef (HIV-1 (NA7)). The experiment is described as above.
For experiment [3], the target named is SF2-HFNef (HIV-1 (SF2)) (UniProt P03407). The experiment in a line: co-IP; cytosolic (soluble, high speed supernatant) fraction of co-transfected 293T cells in Buffer B; anti-HA monoclonal antibody precipitates the HF-tagged Nef, untagged Nef detected by Western blot; FD estimated from band densities.
Experiment [4] deals with NA7-HFNef (HIV-1 (NA7)). Described as above.
For experiment [5], the target named is SIV_(MAC239)-HFNef (SIVmac239). The experiment in a line: co-IP; membrane-associated protein fraction of co-transfected 293T cells, solubilised in Buffer B plus 0.5% IGEPAL CA-630; anti-HA monoclonal antibody precipitates the HF-tagged Nef, untagged Nef detected by Western blot; fractional dimerization (FD) estimated from band densities assuming strict dimers and a binomial distribution.

Chain of UniProt P03407 (P03407 whole entry): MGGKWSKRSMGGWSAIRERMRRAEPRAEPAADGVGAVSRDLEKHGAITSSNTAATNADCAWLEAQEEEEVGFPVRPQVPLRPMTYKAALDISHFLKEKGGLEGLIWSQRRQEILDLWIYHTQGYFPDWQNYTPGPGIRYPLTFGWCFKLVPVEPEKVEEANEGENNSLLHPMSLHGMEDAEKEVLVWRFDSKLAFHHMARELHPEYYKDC

Turning to NA7Nef (natural protein), the fractional dimerization (FD) with SF2-HFNef (HIV-1 (SF2)) [1] is 0.48; in the experiment with NA7-HFNef (HIV-1 (NA7)) [2] it was 0.52; in the experiment with SF2-HFNef (HIV-1 (SF2)) [3], 0.23; with NA7-HFNef (HIV-1 (NA7)) [4] it was 0.35.
In the case of SIV_(MAC239)Nef (natural protein), the fractional dimerization (FD) in experiment [5] is 0.37.

The record behind these values is paper PMC2955668.
